US20220268788A1
Values belong to the binder of their own block, whether it stands above or below them. bromoacetamide scaffold with biotin = not defined here

Legend:
Assay in all cases: immunoprecipitation with HCDR3 construct, number of peptides identified by mass spectrometry
[1] = target: 78 kDa glucose-regulated protein (mouse) (UniProt P20029)
[2] = target: Heat shock cognate 71 kDa protein (mouse) (UniProt P63017)
[3] = target: T1, citrate synthase, mitochondrial (mouse) (UniProt Q9CZU6)
T1 sequence (looked up): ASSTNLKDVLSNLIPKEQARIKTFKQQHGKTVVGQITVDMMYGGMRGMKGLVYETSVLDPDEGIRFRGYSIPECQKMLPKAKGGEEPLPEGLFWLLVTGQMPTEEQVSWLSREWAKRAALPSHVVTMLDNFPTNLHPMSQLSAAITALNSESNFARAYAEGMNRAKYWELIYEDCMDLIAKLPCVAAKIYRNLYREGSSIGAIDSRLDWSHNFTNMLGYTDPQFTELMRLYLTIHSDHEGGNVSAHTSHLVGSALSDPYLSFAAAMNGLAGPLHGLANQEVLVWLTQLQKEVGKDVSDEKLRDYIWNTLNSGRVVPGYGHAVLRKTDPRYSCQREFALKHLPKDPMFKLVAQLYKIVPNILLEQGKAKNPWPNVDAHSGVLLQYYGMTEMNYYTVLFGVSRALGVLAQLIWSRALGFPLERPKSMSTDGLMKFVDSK

[4] = target: T2, Succinate--CoA ligase [ADP-forming] subunit beta, mitochondrial (mouse) (UniProt Q9Z2I9)
T2 sequence (looked up): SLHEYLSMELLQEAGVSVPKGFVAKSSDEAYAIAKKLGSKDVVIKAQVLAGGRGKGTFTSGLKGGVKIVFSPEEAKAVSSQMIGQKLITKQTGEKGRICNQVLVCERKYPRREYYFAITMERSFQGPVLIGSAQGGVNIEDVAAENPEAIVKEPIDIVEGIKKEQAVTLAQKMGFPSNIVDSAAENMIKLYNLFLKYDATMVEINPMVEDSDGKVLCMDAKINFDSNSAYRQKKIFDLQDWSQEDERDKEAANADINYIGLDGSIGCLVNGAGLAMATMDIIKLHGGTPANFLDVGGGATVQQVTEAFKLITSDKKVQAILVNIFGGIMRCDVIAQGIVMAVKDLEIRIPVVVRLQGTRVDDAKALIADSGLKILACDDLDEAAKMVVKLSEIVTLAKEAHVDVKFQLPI

Chain of Heat shock cognate 71 kDa protein (mouse) (P63017 2-646 limits assumed): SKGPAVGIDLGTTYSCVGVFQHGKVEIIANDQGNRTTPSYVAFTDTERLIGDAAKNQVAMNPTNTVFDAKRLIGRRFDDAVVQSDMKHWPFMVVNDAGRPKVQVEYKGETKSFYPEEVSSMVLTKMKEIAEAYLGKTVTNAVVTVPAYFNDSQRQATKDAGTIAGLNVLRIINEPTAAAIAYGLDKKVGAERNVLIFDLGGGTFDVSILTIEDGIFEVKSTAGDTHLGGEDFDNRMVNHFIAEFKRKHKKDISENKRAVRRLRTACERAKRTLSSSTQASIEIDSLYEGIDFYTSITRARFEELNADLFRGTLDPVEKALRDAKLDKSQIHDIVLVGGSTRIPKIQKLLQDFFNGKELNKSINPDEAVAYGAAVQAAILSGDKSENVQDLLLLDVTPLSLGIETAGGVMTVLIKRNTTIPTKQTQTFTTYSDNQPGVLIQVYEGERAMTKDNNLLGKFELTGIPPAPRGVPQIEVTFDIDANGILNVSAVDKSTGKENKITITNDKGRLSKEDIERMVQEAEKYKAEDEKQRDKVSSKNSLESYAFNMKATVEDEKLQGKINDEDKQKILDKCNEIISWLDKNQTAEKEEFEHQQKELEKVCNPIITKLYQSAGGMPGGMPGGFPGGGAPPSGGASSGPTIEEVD
Chain of 78 kDa glucose-regulated protein (mouse) (P20029 20-655 limits assumed): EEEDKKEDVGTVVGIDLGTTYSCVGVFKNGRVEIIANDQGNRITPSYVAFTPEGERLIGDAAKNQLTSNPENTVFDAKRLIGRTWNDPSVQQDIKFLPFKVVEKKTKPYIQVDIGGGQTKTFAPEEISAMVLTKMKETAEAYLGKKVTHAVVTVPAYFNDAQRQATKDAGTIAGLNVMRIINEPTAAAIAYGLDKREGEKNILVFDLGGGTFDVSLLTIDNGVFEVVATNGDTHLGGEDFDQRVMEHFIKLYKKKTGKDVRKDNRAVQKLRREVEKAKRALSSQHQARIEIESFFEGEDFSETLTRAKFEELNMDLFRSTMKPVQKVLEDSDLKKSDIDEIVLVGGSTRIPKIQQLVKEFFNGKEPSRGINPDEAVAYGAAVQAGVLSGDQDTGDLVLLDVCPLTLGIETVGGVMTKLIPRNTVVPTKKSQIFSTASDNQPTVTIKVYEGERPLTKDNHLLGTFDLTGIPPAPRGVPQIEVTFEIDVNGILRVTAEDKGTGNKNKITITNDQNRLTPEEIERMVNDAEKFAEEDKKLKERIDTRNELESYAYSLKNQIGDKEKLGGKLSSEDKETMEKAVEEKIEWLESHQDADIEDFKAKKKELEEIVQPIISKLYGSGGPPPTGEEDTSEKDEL

# Peptides [1]: 6 peptides | # Peptides [2]: 6 peptides
B1: subacute-1 construct (SA1), biotinylated cyclic HCDR3 construct (peptide, part only; not given: biotin scaffold, part only)
peptide: Ac-TDLAVAHPVRY-NH2
modifications: linker (positions not given here) via bromoacetamide scaffold with biotin; reading uncertain; also: biotinylated bromoacetamide scaffold cyclization, attachment sites not given here

# Peptides [3]: 3 peptides | # Peptides [4]: 4 peptides
B2: Acute-2 construct (A2), biotinylated cyclic HCDR3 construct (peptide, part only; not given: biotin scaffold, part only)
peptide: Ac-SLYGSSRHTAPISF-NH2
modifications: linker (positions not given here) via bromoacetamide scaffold with biotin; reading uncertain; also: biotinylated bromoacetamide scaffold cyclization, attachment sites not given here
